Measured values published in a protein production outcome set (Wang et al. 2014).

Assay: label from the status in PepcDB records

MPSQSFNAFCPDWATALLNGFSQIFLQRHPLCGLLCLLAILVSAPALLGAALLGALAGLLTAQRRWYAKADRQAGLFSYNGVLLGLLLGLYLPWSVLLPPLIIAAGGLSAIITQQWLKRARNPASLPAYTAPFVGLGWLLLSLIEPLPAATQGVPGLSLANLLGGLFQGLGQIMFLGQPLAGLLILLGLLLASRRAAAWALFGSACGLLFALLLQEHAQALQGLGGYNCALVALALGQQARHPWRPLLGMLLALLISPGLVALGLAPLTAPFVLACWLVHTVDRVLGRNVRGDAPCAPPANPPRLR
protein production: failed

MLERILEPEVMDTEAEAMDYDAMDFQAVNLAFAQRACQLGPSKATVLDAGTGTARIPILLAQLRPAWQITAIDFARSMLAIAKENVIAAGCETQICLEFVDAKQLPYANGSFDGVIANSLCHHLPRPLDFLREVKRVLKPHGFLLIRDLIRPESPEKLADFVTAIGSDYNDQQRKLFADSLHASLTIAEIQDYLQHLGWVGDDGPNLELHLYQSSDRHWTLEKKFQSSTIVQR
protein production: failed

MTLGLTPKFVKIFLFVGLMLLSTSLAVIFPLNSVEGLGSGVTKTVLDNGLTVLIKEIPTAPVVSLQVWYRVGSRHEPKGENGIAHQLEHLMFKGTQSRPVQFGQLFYALGSSSNAFTSYDMTAYHHTVRADQLEPLLILEADRLRHTLITPDALESEKRVVISELQGYENSPEYRLSRAVMAALYPKHPYGLPVGGTASDVEQLTLAAVKSFYQQYYRPDNAVVVIAGNVRAARALELVKSTFGAIPQPPEPLISPPLPPPGAVSGQRIRLREPGSAPLLQILVPIPGITHPDQAALDVLDMLLSGGRSSYFYQELMETGQASSAYSYVAALQEGGWFEMGAIASPDQSLETIEQSIGKMLQQLAERPLSLAELQRAKQQLKANFILRNRDIDAQASQLANDETLTGDYRFSDRHLAAIEKVTAADVQRVVQTYFGRDRWIVGEFIPSEFADVELSGRPAVQTTAHNLIGEPVDPQTIAAYLPQGSAQAAPAVKNNGVETFTLENGLRVLLLVDRSTPTVTLAGRIDAGTAYDLLTQPGVANLTAANLLNGTRTKTALTLAQTLEDRGISLEFSAFRDGVDVEGYALASELPTLLATLGEVLQEATFPEAEFKLSQQRYLTALGLEADDPVRWGRRVLQETLYPAHHPLHPFATPESVQAIQRQDLLNFYRAAYRPDRTILTLVGDFDPLAVRSRLKDIFGPWQPPTAPLSLTFPAVSPPPQTLFRNAVIAGKSQAITYLGTPGIDRRHPRFYAAMLMNHILGGDTLASRLGTEIRDRQGLTYGIYSFFTASRQAGPFMIQLQTAPEDTAKAIQATLQLLREARRQGFTAAELEAAKRSLSNTYLVELANVDVVARTLLANASVDLPPQELQQFSDRLQQVSLAEVNQALRELIDPERLVIVTAGPAVSFSP
protein production: failed

ACDNDTEPGGTAVEKMAGDWWVTVNAFIDGKEVEDPFGAGHLQMSTYNTASNSETEMWLDDLGNFWEYKLKVNVNYAARTFSTTGFVDNVTYESKVKITDGKVLEKAATTPSGMPADSIVYMVQFDDDEDGLTYKVSGFRRTGFPADDF
protein production: not failed

MNIKVTVFHYILDRSYIFLLFIIFISLIFPIISAFISLIFVGLLFQGLYLRRQSSTNSPYIVLEILSMLSLIYAAQFFTHLLKATDIVFLSYLIIISLSLYRLKRIIKKKTNYLQNSKVAFTLLLLAFLLNWFISGFLDLTQGNFSVFGQFGYFSYPFLAIMNFISAFASITASPWFMIDMGIWLGVIGIFRIIEYNKLENKIRYLLMMFAYAFYSIYLPSFSPLQSEVQYIPYMWFNGLGTYGPVRSSYLLDGIIGTFTVTAILSFMFGSRQICSVTCTAPYMLQNTFLNSMKKYNRSSKVGRKTLTSRMSSWYKWVMSITWISLIILAVLSFLKFSILGNDPTMFYTSLYFNVIWYFQFMLMPFLGNYACVNSGICAWGSFNQLFGYLGFFKLKVRDLKQCLNCKTVDCANACPVGLTDMRAWFIKKGEFKSFKCVGVGDCVEVCPYNNITFYDVRSWIKEKLYPIQFKHRGTT
protein production: failed

MRKELCRNFQRGSCRYGENCRFLHPQQAKPNNPFGFGTQNQQQQQQQQQQNSSNPFGFGVQSGGSSRPNQFQNTWSRTASTPTGGGAAASTQQTGKQTQPADHKCTDPAACKRVMQDDFKNERPMWKLTCYGHWKYFPCDVTGDISYEELRAVAYEEAKRGIPLQSIVERERNLQNSKIAEFENFLRNPYKGSVTANQSPFAATTPSIFPQSSQINSPSPAFSGFNQQTAFSNTNAGGLSSSGPPNAFASFNQQTTFPNTNAGGVSSSGPPNPFASFTQQSNNQQTAFSNTNAGGLSSSGPPNAFASFNKQPNAFSVNTPQPVPSGPSGFQTNPSTTFKPASFGPGPGFATTPQNNNIFGQSTPTPATNTSQNNQTAFNFNVPVASFTAPAINTTNTSSGTELQIGGDPVDSSIWLKEKWNPGEIPEQAPPDAFV
protein production: failed

MADKTGTPHPLTEPGVWIERIGGRVFPPHLPALFLDRDGTINVDTDYPSDPAEIVLRPQMLPAIATANRAGIPVVVVTNQSGIARGYFGWSAFAAVNGRVLELLREEGVFVDMVLACAYHEAGVGPLAIPDHPMRKPNPGMLVEAGKRLALDLQRSLIVGDKLADMQAGKRAGLAQGWLVDGEAAVQPGFAIRPLRDSSELGDLLAAIETLGRDNRS
protein production: not failed

MTFLIPAYNEEKSIGPLIDRIKMLCPDSEIIVVDNNSSDRTSEIATSRGVRVIFEGKQGKANAMVAAFRNTRTEYAVMMDADLTYLPDDSRVLVEVLKAEGADVVLGSRLNGEKEDGAISRINTVGNHILSFTASILYSPVSDVCTGHWAFNRRAIRHILEEGLNYSGFELEAEMFSKLARAGLKIVEVPITYRKRSDEPKLSSFTDGFKIFRTLVLERLRLEHHHHHH
protein production: failed

MSEEQDKQRNTRKKENNRLLTKAAIIGVVAGILGGGIAYGGLSAANLNSNTSSSTASSSSSNTGENGSVTTSSSGTTKVNKSKTTSGTMTSAYKKVQNAVVSVLNYKYTSSSSSSSDIYSMFGYGDSDSSDSSSSKKSLTLYSEGSGVIYTTANGKGYIVTNNHVISGAAKVKVILASGKTIAAKVVGKDSTSDLAVLSIDSKYVTQTASFGDSRSLLSGQTVIAIGSPEGSEYASTVTQGIISSPSRTITYNSNQMTVIQTDAAINSGNSGGPLVNSDGQVIGINSMKLSSSSSGDSVEGMGFAIPSNEVVTIVNQLVKKGKITRPQLGIKVAAIADLNSYYKKQLGISTSLKKGLYVASVTSGSAAASAGIKKGDVITAADGKTVNDVATLHSILYSHNVGDKVKITVNRNGKTMTFTVTLQASN
protein production: failed

DISSTEIWDAIRRNSFLLYYQPKVDAKTNELIGFEGLIRLKTATAILAPADFFEDIALLNATREMQDFVAETAIEQINQLGGRFSISINIPAHYVVSSNYMTFLYDYVKEHLKYPECLEIEIIERGEITELAVADKNLRKIKKLGVTVSMDDFGKGYSSLAYLRSLPIDIVKTDMSFIALLKTDRKQQIIIQAIVNLCHDLGGKVVTEGVEDIEQVKTLREMKVDYFQGYYFSRP
protein production: not failed

MIRERSINLGHQVEGAIFTRHNHIVSVDGDGILSFQNNITKVKPNEAIFIPSKVMVRFSFNSNENKSIKVSLYHINGINLNCKQDKVTSLINAYIEVEKLNLTNRETIIELIGSRLEKIKNNRVLYNYDPLEKKIYRLVSKDLKKKWSLEEVCKLTYTSKSTLNRKLKDNQTSMGQIISNARLDYATILITNTSLSVDEISMLSGFNSTSYFCKKFKESHGFSPKQYRKLLAYNQVPLNRI
protein production: failed

MSRSLVFGTAGLALLLAAGGLLYSFGPDERRARAAPTPPDTTDTSGVYSQRAPSRNGIGKVYMGREISKVMGHRGANWLERPARAEKERPDLLVDSLPLGPSDTVADIGAGTGYLSFRVAPRVPQGNILAVDIQPEMLNMMRERIDERGVDNVTPIRGTVTDPQLPADSVDLAYMVDAYHEFSHPYEMMTALMEDLTPGGRVVLVEYPREDPSIPIKTLHKMTEAQAKKEMRAVGLEWVETKDMLPRQHFMVFRKPVE
protein production: failed

MSALRTIGALTAREMLKFVRDRSRVLGALAQPLALWLLLGLGFQNTFQPPQGSVGGSYGAFLLPGILALVLLFTAIFSTISIVEERTSGFLQAVLVAPTPRTALVFGTTLGGTLLATVQALLFLGALPLIDLSPGVAGVGMIVAVCLLTGLAFTALGFAIAWRMETTRGFHAVMNLFLLPLWFLSGAMFPVDGAAPVLQVVMWGNPVSYAVSGLRHGFHGFAGTPAALAGPGVCLAVTGAFAVLMTGLAVWQVRRPFFQT
protein production: failed

RPQNTNSWQKDSIEGIDIMLAMDVSGSMQAMDFKPNRLEAAKDVAISFINNRPNDNIGMVTFAGESFTQCPLTTDHTVLLNMVQDLQMGVLDDGTAIGMGLATAVNRLKDSKAKSRVVILLTDGSNNMGDITPRMAADIARTFGIRVYTVGVGTRGEAPFPIQTEFGVRIQNVPVDIDEPTLDGIAEVSGGKYFRAVDNETLNEIYKEIDKLEKTRLMT
protein production: failed

MSLTTSKTRKSGVAMTEKLELDPARTAIVLIEYQNEFTSDGGVLHGAVADVMQHTGMLANTVAVVDAARQAGVPIMHAPITFAEGYGELTRHPYGILKGVVDGKAFVKGTWGAAIVDELAPVNGDIVIEGKRGLDTFASTNLDFILRSKGVDTIVLGGFLTNCCVESTMRTGYERGFRVITLTDCVAATSQEEHNNAISYDFPMFSVPMTSADVIAALEGHHHHHH
protein production: not failed

METPKGTIIFTTVGRTHYGFDVFSLNIATSVERRLTDGVSVNFNAQFVNDKSDDVVFVSERNGSARIYKTRSGISKPEQIPGAPESYFHDRPIITQNNRLYFISAHEQPDRYFKNWSALYTVELNSAKREVTRVTPPDTADFSPAVSQSGDFLAVASYGTRSWGGEFHEINTDITVFKASKPETRVVICERGGWPTWSGDSTVFFHHQADDGWWSIFRVDIPENFTEYTDFPITPIRVTPSGLHCFTPAAFRDGKRIALATRRRGVNHRHIEIYDLENTTFQPVTESLNPSFHHYNPFVSPDSEFLGYHRFRGESTQGESIVPNIESIVSPIKTLRLLRINGSFPSSSPNGDLIALNSDFDINGGIKVSKSDGSKRWTLIKDRTAFYNSWSPTERHVIYTSLGPIFSPARIAVQIARIKFDPSDLTADKEDLPCDVKILTLENTGNNAFPSCSPDGKSIVFRSGRSGHKNLYIVDAVNGESNGGGIRRLTDGPWIDTMPCWSPKGDLIGFSSNRHNPENTAVFGAYVVRPDGTGLRRIQISGPEGSEEAARERVNHVSFNKDGDWLVFAANLSGVTAEPVTMPNQFQPYGDLYVVKLDGTGLRRLTWNGYEDGTPTWHTADELDLSQLNLNGQDGDKLEGQFEEPLWISCDI
protein production: failed

MGSLGFLAGGVMPLEQLKQELSEVKGVFGVNLFRPQTDAPKPSDIDELAGLLSSAFRQFGLDEPTVPTPDLSNGWEAKFEAVLAAKPAVFSCTFGIFSAEEFARIKATGIEAWVTVTNPEDALAAQKAGANALVVQGPEAGGHRSTWSIEVEPDERDLKTLLAAVKQAGVYLPLIAAGGLSTSADVAAILEAGASAASCGSAFLLSDEAGTSSLNREILDAAPALGLESVSSRAFSGRYARGVETRFTRSNEGLPPLYPYLNPMITSLRKVAGSAGNWDYAYCLVGVGLESIAKGSAKQILESLTPSALEHHHHHH
protein production: failed

GKIVEIGVGFYLEVAKRLRESGIDILVVDINEKAINYARKQGIKGVVDDIFNPTLGIYKDAKAIYSIRPAPEMMKPLLDLARKLKIPLYIVPLTGDR
protein production: failed

MLHYVHVGNKKSPNTLLFVHGSGCNLKIFGELEKYLEDYNCILLDLKGHGESKGQCPSTVYGYIDNVANFITNSEVTKHQKNITLIGYSMGGAIVLGVALKKLPNVRKVVSLSGGARFDKLDKDFMEKIYHNQLDNNYLLECIGGIDNPLSEKYFETLEKDPDIMINDLIACKLIDLVDNLKNIDIPVKAIVAKDELLTLVEYSEIIKKEVENSELKIFETGKHFLLVVNAKGVAEEIKNFI
protein production: not failed

MGKLLFVDIGGTLLDYSNEVPRSAVDAIRKARAKGHRVYLSSGRSSAEVTSQLWDIGVDGLIGANGGYVESAQESVFHRRLSGEETRHIVEWLYNRGLEFYLESNNGLYASRGFREASKPVLSRLSEKTDVTVDSMYPDMFWGASLDRDDVNKISYIFNSQEDLDAAREAFPNLEHTTWGGQTGALFGTIGVSVNKKIGVDRLLKYLNADRANTIAFGDSDEDLSLFEASAYGVAMGEATESLKAAADLVTDAVGQDGLRNAFLKLELIDA
protein production: failed
